Blank lines part the entries; values can stand above or below the binder they belong to.
How the values were obtained:
[1] = biological target: T1, DRN-GFP (DORNRÖSCHEN fused to GFP, from pDRN::DRN-GFP plants) (Arabidopsis thaliana, UniProt Q9SAD4 1-328); experiment: co-IP; anti-GFP on Protein A sepharose beads, blot probed with anti-MYC; extracts of young (younger than P10) and mature (older than P10) leaf axil-enriched tissues of pDRN::DRN-GFP p35S::REV-MYC plants, equal amounts of DRN-GFP; 20 mM HEPES pH 7.5, 40 mM KCl, 1 mM EDTA, 1% Triton X-100; conditions: partners not purified
T1 construct: DORNRÖSCHEN (DRN/ESR1), AP2 family transcription factor, Arabidopsis thaliana, At1g12980; Cole et al., 2009; also called ESR1; ENHANCER OF SHOOT …ON 1; source: Arabidopsis pDRN::DRN-GFP p35S::REV-MYC plants, extract of leaf axil-enriched shoot tissues
T1 sequence (Q9SAD4 whole entry, the tested form may be a part): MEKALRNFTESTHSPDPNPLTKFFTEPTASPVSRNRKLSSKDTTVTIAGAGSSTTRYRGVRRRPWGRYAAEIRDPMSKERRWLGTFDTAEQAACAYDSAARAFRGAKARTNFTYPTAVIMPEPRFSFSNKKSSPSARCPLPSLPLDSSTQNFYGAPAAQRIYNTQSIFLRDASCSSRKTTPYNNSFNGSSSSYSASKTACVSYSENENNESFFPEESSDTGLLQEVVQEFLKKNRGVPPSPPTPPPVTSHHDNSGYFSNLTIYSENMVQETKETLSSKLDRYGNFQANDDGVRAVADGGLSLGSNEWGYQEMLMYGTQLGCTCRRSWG

[2] = biological target: T2, BD-REV (full-length REV fused to the binding domain of GAL4) (Arabidopsis thaliana, UniProt Q9SE43 1-842); experiment: cell-based or functional assay
T2 sequence (looked up): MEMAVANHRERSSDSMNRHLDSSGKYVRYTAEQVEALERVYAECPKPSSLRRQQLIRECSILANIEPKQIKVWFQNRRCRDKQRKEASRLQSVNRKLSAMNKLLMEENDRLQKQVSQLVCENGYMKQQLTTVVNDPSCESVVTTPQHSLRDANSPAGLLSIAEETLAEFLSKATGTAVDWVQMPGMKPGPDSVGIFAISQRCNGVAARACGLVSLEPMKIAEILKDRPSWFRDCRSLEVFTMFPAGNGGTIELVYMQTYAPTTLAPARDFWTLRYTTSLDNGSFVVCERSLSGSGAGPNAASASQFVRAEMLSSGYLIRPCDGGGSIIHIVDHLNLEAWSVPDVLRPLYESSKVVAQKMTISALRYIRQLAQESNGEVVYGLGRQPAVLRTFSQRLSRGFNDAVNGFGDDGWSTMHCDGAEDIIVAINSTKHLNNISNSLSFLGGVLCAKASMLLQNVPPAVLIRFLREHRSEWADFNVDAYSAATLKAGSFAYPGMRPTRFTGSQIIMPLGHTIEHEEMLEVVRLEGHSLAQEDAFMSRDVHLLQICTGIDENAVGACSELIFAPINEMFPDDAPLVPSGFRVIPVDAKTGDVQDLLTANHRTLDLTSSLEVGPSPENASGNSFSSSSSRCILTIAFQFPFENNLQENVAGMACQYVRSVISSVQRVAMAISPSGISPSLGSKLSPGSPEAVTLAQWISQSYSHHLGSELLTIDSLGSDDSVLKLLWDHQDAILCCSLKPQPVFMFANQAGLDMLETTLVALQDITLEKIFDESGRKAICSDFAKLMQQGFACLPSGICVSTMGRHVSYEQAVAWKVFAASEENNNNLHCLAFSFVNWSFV

fold stronger co-precipitated REV-MYC band, old against young leaf axil-enriched tissues [1]: ~3 fold
B1: REV-MYC (REVOLUTA with MYC tag, from p35S::REV-MYC plants) (natural protein, Arabidopsis thaliana, UniProt Q9SE43 1-842, looked up)
chain: MEMAVANHRERSSDSMNRHLDSSGKYVRYTAEQVEALERVYAECPKPSSLRRQQLIRECSILANIEPKQIKVWFQNRRCRDKQRKEASRLQSVNRKLSAMNKLLMEENDRLQKQVSQLVCENGYMKQQLTTVVNDPSCESVVTTPQHSLRDANSPAGLLSIAEETLAEFLSKATGTAVDWVQMPGMKPGPDSVGIFAISQRCNGVAARACGLVSLEPMKIAEILKDRPSWFRDCRSLEVFTMFPAGNGGTIELVYMQTYAPTTLAPARDFWTLRYTTSLDNGSFVVCERSLSGSGAGPNAASASQFVRAEMLSSGYLIRPCDGGGSIIHIVDHLNLEAWSVPDVLRPLYESSKVVAQKMTISALRYIRQLAQESNGEVVYGLGRQPAVLRTFSQRLSRGFNDAVNGFGDDGWSTMHCDGAEDIIVAINSTKHLNNISNSLSFLGGVLCAKASMLLQNVPPAVLIRFLREHRSEWADFNVDAYSAATLKAGSFAYPGMRPTRFTGSQIIMPLGHTIEHEEMLEVVRLEGHSLAQEDAFMSRDVHLLQICTGIDENAVGACSELIFAPINEMFPDDAPLVPSGFRVIPVDAKTGDVQDLLTANHRTLDLTSSLEVGPSPENASGNSFSSSSSRCILTIAFQFPFENNLQENVAGMACQYVRSVISSVQRVAMAISPSGISPSLGSKLSPGSPEAVTLAQWISQSYSHHLGSELLTIDSLGSDDSVLKLLWDHQDAILCCSLKPQPVFMFANQAGLDMLETTLVALQDITLEKIFDESGRKAICSDFAKLMQQGFACLPSGICVSTMGRHVSYEQAVAWKVFAASEENNNNLHCLAFSFVNWSFV
notes: REVOLUTA (REV), class III homeodomain-leucine zipper transcription factor, Arabidopsis thaliana, At5g60690; source: Arabidopsis pDRN::DRN-GFP p35S::REV-MYC plants, extract of leaf axil-enriched shoot tissues

pSTM::Luc reporter (LUC/GUS) in Arabidopsis protoplasts; co-transformation of p35S::DRN and p35S::REV against transformation with one alone [2]: ~2.5 fold
B2: AD-DRN (full-length DRN fused to the activation domain of GAL4) (natural protein)
chain: not shown

pSTM::Luc reporter (LUC/GUS) in Arabidopsis protoplasts; co-transformation of p35S::DRNL and p35S::REV against transformation with one alone [2]: ~2.5 fold
B3: AD-DRNL (full-length DRNL fused to the activation domain of GAL4) (natural protein)
chain: not shown

Source: publication PMC6307885, “Spatiotemporal control of axillary meristem formation by interacting transcriptional regulators” (Development (Cambridge, England), 2018)
